We go through two molecules from patent US20240209106A1 (BEIGENE SWITZERLAND, published 2024).

Broadly, the Kd is the free concentration of one partner at which half of the binding sites on the other are occupied at equilibrium, for simple one-to-one binding. A lower Kd goes with a tighter complex. The koff is the first-order rate constant of dissociation. Read a low koff as slow dissociation. As a reminder, the kon is the rate constant with which the complex forms. Read a low kon as slower complex formation. For orientation: EC50 means the midpoint of the concentration-response curve. A high value points to weaker potency. Usually EC50 (read off the curve) stands for the concentration at which the effect is half-maximal. Read a high EC50 (read off the curve) as a less potent agent.

Test [1] has as its target human CD137 ECD-mIgG2a (human). In words: SPR, multispecific antibody captured on anti-human IgG Fc chip, human CD137 ECD-mIgG2a flowed over; Table 15, comparison run with the affinity-matured variants. A general note: Surface plasmon resonance follows binding to a sensor surface in real time, without labels.
The target in test [2] is human CD137 ECD-mIgG2a (human). Nature of the test: SPR, human CD137 ECD-mIgG2a.
In test [3] the target is human CD137 ECD-mIgG2a (human). Nature of the test: SPR, antibody captured on anti-human Fc surface; analyte taken as human CD137 ECD-mIgG2a.
In test [4] the target is T1, full-length human CD137 (huCD137) (human, UniProt Q07011 24-255).
T1 construct: On transduced Hut78 cells (Hut78/huCD137), transiently on HEK293 cells, or natively on PBMC/T cells; also called TNFRSF9; 4-1BB
Nature of the test: flow cytometry on Hut78/huCD137 cells. In general terms: A flow cytometer gives signals particle by particle.

In test [5] the target is T2, Glypican 3 (GPC3) on cells (human, UniProt P51654 25-554).
T2 construct: whole, on cells; also called HepG2; Huh7
Nature of the test: flow cytometry on HepG2 cells [panel C].

Test [6] has as its target T3, human CD137 ECD (AA 24-183) (human, UniProt Q07011 24-183).
T3 construct: also called huCD137
Nature of the test: method and huCD137 construct not stated.

Test [7] concerns the target T4, GPC3 (protein used for the TAA KD of Table 23) (UniProt P51654 25-559, limits assumed).
T4 construct: also called Glypican 3
Nature of the test: method and GPC3 construct not stated (TAA KD).

Sequence of human CD137 ECD-mIgG2a (human) (chain, as listed by the source limits assumed): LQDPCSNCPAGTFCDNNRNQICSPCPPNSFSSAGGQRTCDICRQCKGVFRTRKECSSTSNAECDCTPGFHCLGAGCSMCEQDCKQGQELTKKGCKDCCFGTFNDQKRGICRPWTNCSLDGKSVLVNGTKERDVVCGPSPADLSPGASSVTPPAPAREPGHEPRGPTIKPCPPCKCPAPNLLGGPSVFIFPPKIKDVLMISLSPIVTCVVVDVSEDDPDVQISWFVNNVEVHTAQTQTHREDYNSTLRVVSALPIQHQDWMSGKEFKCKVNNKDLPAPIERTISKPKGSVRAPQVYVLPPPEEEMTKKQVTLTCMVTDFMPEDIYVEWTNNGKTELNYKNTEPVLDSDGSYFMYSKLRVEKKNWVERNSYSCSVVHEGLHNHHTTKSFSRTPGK
T1 sequence (Q07011 24-255 limits assumed): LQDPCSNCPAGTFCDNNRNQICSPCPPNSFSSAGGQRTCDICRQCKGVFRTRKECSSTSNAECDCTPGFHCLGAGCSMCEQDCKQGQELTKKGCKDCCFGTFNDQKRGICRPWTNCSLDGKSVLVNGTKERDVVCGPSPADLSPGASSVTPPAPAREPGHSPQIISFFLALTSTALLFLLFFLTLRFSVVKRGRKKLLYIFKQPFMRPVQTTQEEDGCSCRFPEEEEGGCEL
T2 sequence (P51654 25-554 limits assumed): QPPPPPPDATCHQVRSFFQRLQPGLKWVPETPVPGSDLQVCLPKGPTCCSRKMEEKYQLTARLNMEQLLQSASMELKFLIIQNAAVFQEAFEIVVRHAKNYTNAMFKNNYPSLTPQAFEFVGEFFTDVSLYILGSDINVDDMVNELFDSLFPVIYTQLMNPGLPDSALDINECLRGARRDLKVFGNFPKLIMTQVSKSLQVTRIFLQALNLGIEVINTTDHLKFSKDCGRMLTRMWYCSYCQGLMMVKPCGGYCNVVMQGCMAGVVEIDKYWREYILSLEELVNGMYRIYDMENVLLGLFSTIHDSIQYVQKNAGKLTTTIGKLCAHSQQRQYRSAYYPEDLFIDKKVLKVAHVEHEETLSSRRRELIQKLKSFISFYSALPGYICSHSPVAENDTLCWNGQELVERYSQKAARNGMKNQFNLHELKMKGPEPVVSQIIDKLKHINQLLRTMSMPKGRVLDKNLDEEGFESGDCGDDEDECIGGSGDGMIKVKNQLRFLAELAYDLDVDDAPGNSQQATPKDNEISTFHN
T4 sequence (P51654 25-559 limits assumed): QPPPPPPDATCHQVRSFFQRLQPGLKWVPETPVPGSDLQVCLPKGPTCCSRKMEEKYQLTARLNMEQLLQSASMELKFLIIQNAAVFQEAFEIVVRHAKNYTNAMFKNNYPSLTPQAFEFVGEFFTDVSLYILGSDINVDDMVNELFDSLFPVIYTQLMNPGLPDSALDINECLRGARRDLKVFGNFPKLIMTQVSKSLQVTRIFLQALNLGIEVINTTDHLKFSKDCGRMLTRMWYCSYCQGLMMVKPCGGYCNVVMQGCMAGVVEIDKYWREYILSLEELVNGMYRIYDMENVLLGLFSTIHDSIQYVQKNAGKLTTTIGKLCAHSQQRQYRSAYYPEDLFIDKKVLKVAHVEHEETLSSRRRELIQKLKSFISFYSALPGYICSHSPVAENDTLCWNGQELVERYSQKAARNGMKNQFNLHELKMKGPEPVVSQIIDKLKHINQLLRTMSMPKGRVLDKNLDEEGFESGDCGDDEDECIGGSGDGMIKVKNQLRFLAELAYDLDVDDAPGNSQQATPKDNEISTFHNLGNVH

B1: A-CD137×CEA-M3 (bispecific antibody, human IgG1, kappa)
heavy: QVQLVQSGAEVKKPGASVKVSCKASGYIFTSYYLHWVRQAPGQGLEWIGYINPQTGKTSYAQKFQGRVTMTRDTSTSTVYMELSSLRSEDTAVYYCAREYGNYNYPLDYWGQGTLVTVSSASTKGPSVFPLAPSSKSTSGGTAALGCLVKDYFPEPVTVSWNSGALTSGVHTFPAVLQSSGLYSLSSVVTVPSSSLGTQTYICNVNHKPSNTKVDKKVEPKSCDKTHTCPPCPAPPAAGPSVFLFPPKPKDTLMISRTPEVTCVVVDVSHEDPEVKFNWYVDGVEVHNAKTKPREEQYNSTYRVVSVLTVLHQDWLNGKEYKCKVSNKALAAPIEKTISKAKGQPREPQVYTLPPSREEMTKNQVSLTCLVKGFYPSDIAVEWESNGQPENNYKTTPPVLDSDGSFFLYSKLTVDKSRWQQGNVFSCSVMHEALHNHYTQKSLSLSPGKGGGGSEVQLLESGGGLVQPGGSLRLSCAASGFTLSAEDVGWVRQAPGKGLEWVSAILDFGGSTYYAESVKGRFTISRDNAKNTLYLQMSSLRAEDTAVYYCARVVYHAGGGVTFDYWGQGTLVTVSS
light: DIQMTQSPSSLSASVGDRVTITCRASENQYGYLAWYQQKPGKVPKLLIYNYKNLVEGVPSRFSGSGSGTDFTLTISSLQPEDVATYYCQHHLGTPYTFGQGTKVEIKRTVAAPSVFIFPPSDEQLKSGTASVVCLLNNFYPREAKVQWKVDNALQSGNSQESVTEQDSKDSTYSLSSTLTLSKADYEKHKVYACEVTHQGLSSPVTKSFNRGEC
notes: The chain is therefore built from its pieces
On to B1, for which binding in test [1] was put at a Kd of 289 nM. The molecule also had a Kd in test [2] of 255 nM. Moreover, in test [3], the Kd was 255 nM, the koff came out at 0.00267 s⁻¹ and the kon stood at 10500 M⁻¹ s⁻¹. In test [4], this molecule registered an EC50 of 0.52 µg/mL.

B2: BE-830 (GPC3 × CD137) (bispecific antibody, human IgG1, kappa)
heavy: not shown
light: DVVMTQSPLSLPVTPGEPASISCRSSQSLVHSNRNTYLHWYLQKPGQSPQLLIYKVSNRFSGVPDRFSGSGSGTDFTLKISRVEAEDVGVYYCSQNTHVPPTFGQGTKLEIKRTVAAPSVFIFPPSDEQLKSGTASVVCLLNNFYPREAKVQWKVDNALQSGNSQESVTEQDSKDSTYSLSSTLTLSKADYEKHKVYACEVTHQGLSSPVTKSFNRGEC
notes: also called CD137×GPC3; GPC3×CD137 multispecific antibody BE-830
With B2, in test [5], the “EC50 (read off the curve)” value was ~0.7 µg/mL. Further, the Kd in test [6] was found to be 182 nM; in test [7], 1.47 nM.
